Results as given in patent publication US20140004122A1, “METHODS FOR TREATING OR PREVENTING CHOLESTEROL RELATED DISORDERS” (AMGEN INC., priority 2011, published 2014).

Target: D374Y PCSK9 binding to LDLR (Homo sapiens, UniProt Q8NBP7, D374Y)
Experiment: Large scale receptor ligand blocking screen and functional classification of ABPs
Conditions: functional assays of the screening
Experimental: To screen for the antibodies that block PCSK9 binding to LDLR an assay was developed using the D374Y PCSK9 mutant. […] The following protocol was employed in the receptor ligand blocking screen: Costar 3702 medium binding 384 well plates (Corning Life Sciences) were employed in the screen. The plates were coated with goat anti-LDLR (R&D Cat #AF2148) at 2 μg/ml in 1×PBS/0.05% Azide at a volume of 40 μl/well. The plates were incubated at 4° C. overnight. The plates were then washed using a Titertek plate washer (Titertek, Huntsville, Ala.). A 3-cycle wash was performed. The plates were blocked with 90 μl of 1×PBS/1% milk and incubated approximately 30 minutes at room temperature. The plates were then washed using the Titertek plate washer. A 3-cycle wash was performed. The capture sample was LDLR (R&D, Cat #2148LD/CF), and was added at 0.4 μg/ml in 1×PBS/1% milk/10 mM Ca^2+ at a volume of 40 μl/well. The plates were then incubated for 1 hour and 10 minutes at room temperature. Contemporaneously, 20 ng/ml of biotinylated human D374Y PCSK9 was incubated with 15 micro liters of hybridoma exhaust supernatant in Nunc polypropylene plates and the exhaust supernatant concentration was diluted 1:5. The plates were then pre-incubated for about 1 hour and 30 minutes at room temperature. Next, the plates were washed using the Titertek plate washer operated using a 3-cycle wash. 50 μl/well of the pre-incubated mixture was transferred onto the LDLR coated ELISA plates and incubated for 1 hour at room temperature. To detect LDLR-bound b-PCSK9, 40 μl/well streptavidin HRP at 500 ng/ml in assay diluent was added to the plates. The plates were incubated for 1 hour at room temperature. The plates were again washed using a Titertek plate washer. A 3-cycle wash was performed. Finally, 40 μl/well of One-step TMB (Neogen, Lexington, Ky.) was added to the plate and was quenched with 40 μl/well of 1N hydrochloric acid after 30 minutes at room temperature. OD's were read immediately at 450 nm using a Titertek plate reader.
The receptor ligand assay was then repeated using the mutant enzyme on the 384 member subset of neutralizers identified in the first large scale receptor ligand inhibition assay. The same protocol was employed in the screen of the 384 member blocker subset assay as was done in the large scale receptor ligand blocking screen.
Limiting dilution was used to isolate a manageable number of clones from each line. […] The isolated clones were each expanded in 50-100 ml of hybridoma media and allowed to grow to exhaustion, (i.e., less than about 10% cell viability). The concentration and potency of the antibodies to PCSK9 in the supernatants of those cultures were determined by ELISA and by in vitro functional testing, as described herein.

B1: 21B12: human anti-PCSK9 monoclonal antibody; light/heavy variable region SEQ ID NO 23/49 (antibody, listed as Homo sapiens, V domains shown)
VH: QVQLVQSGAEVKKPGASVKVSCKASGYTLTSYGISWVRQAPGQGLEWMGWVSFYNGNTNYAQKLQGRGTMTTDPSTSTAYMELRSLRSDDTAVYYCARGYGMDVWGQGTTVTVSS
VL: QSALTQPASVSGSPGQSITISCTGTSSDVGGYNSVSWYQQHPGKAPKLMIYEVSNRPSGVSNRFSGSKSGNTASLTISGLQAEDEADYYCNSYTSTSMVFGGGTKLTVL
**Q.** How did the “neutralizing ability (blocking PCSK9/LDLR)” value turn out when B1 was run?
**A.** neutralizing
